According to the Human Domainome abundance scans (Beltran et al. 2025):

B1: POU domain, class 3, transcription factor 3, residues 320 to 388; numbered along this chain, P20264 (parent)
chain: DDLEQFAKQFKQRRIKLGFTQADVGLALGTLYGNVFSQTTICRFEALQLSFKNMCKLKPLLNKWLEEAD

Variants of: B1
Assay: abundance fitness (aPCA) (normalised: wild type 0, dead -1); higher = more abundant; growth selection in yeast, the domain comes from the species named
Details: Homo sapiens

Abundance fitness: each site, then its substitutions
I15: W -0.751; S -0.17; Q -0.052; P -0.501; E 0.058; F -0.249; L -0.252; K -0.336; H -0.875; M -0.426; R -0.421; G -0.778
T30: R -0.08; G -0.013; H -0.232; W -0.421; N -0.348; P -0.115; E -0.177; F -0.514; Q 0.1; M -0.077; L -0.325; V -0.034; K 0.336; S 0.01; D -0.062; A 0.063; I -0.446; Y -0.459
V35: D 0.091; E 0.172; A -0.537; F -0.179; C -0.417
K16: L -0.064; S -0.33; Y -0.088; D -0.102; Q -0.043; R -0.088; A 0.004; T 0.021; W -0.696; F -0.569; C -0.543; E -0.382; M -0.282
F10: W -0.636; M -0.631; V -0.885; N -0.705; T -0.488; Q -0.698; Y -0.631; P -0.896; S -0.846; R -0.543
G33: A -0.382; S -0.885; H -0.753; V -1.09; Y -0.523; W -0.722; M -0.792; P -0.204; L -0.922; I -0.7; D -0.545; Q -0.263; F -0.766
L31: I 0.076; S -0.137; Q -0.116; A -0.299; F -0.023; Y -0.334; G -0.565; D -0.017; V -0.195; C -0.237; W -0.387; H -0.229; R 0.031; M -0.156; K -0.118; P -0.551
G25: A 0.161; C 0.103; M -0.754; Q -0.682; S -0.069; R -0.3; V -0.815; T -0.36; N -0.753
R14: S -0.813; Y -0.764; L -0.783; A -0.823; Q -0.861; E -0.859; W -0.944; M -0.954; C -0.681; F -0.829; G -0.871; T -0.939; V -0.751
L26: S 0.071; T -0.515; K -0.076; Y 0.035; Q 0.017; C -0.045; G -0.227; E 0.133; M 0.058; A 0.005; V -0.147; W -0.24; D -0.016; R 0.128
L28: V -0.703; Q -0.747; W -0.981; S -0.94; M -0.594; R -1.02; N -0.71; G -0.943; A -0.639; T -0.8; K -0.682
G29: M -0.427; P -0.658; F -0.388; L -0.929; S 0.092; A 0.056; W -0.478; H -0.154; N 0.041; E -0.02; K -0.01; T -0.004; C -0.594; Y -0.108; R 0.02; I -0.464; D -0.736; V -0.468; Q -0.554
K11: W -0.753; V -0.856; T -0.39; G -0.926; P -0.888; S -0.541; A -0.298; Q -0.106; R -0.087; M -0.386; L -0.944
F19: P -0.625; R -0.466; L -0.202
